Assay results published in patent US20240083958A1, “G PROTEIN PEPTIDOMIMETICS” (VRIJE UNIVERSITEIT BRUSSEL, priority 2020, published 2024).
Read-outs that look alike come from different tables or passages of the source. Bridge positions count the residues as written; N and C are the ends. Square brackets hold non-standard residues; d marks the D form. Primed or numbered codes have the meaning given here. Azk = residue with azidated side chain, clicked to Pra; Pra′ = residue with alkynyl side chain, clicked to Azk; R8 = C=CCCCCCC[C@@](C)(N)C(=O)O; R5 = C=CCCC[C@@](C)(N)C(=O)O; S5 = C=CCCC[C@](C)(N)C(=O)O

Columns and labels:
Assay in all cases: cell-based or functional assay
human β2AR [1] = biological target: T1, human β2AR (human, UniProt P07550 2-365)
human β2AR [2] = biological target: T1, human β2AR; remark: listed apart in the source
human β2AR [3] = biological target: T1, human β2AR; remark: listed apart in the source
human β2AR [4] = biological target: T1, human β2AR; remark: listed apart in the source

For Ac-FNDCRD[Pra′]IQR[Azk]HLRQYELL-OH (triazole 7-11) [compound 11], the “IC50 (nM) of isoproterenol, [3H]-DHA RLA, peptidomimetic present” value (from here on “IC50 (nM) of isoproterenol, [3H]-DHA RLA”) (human β2AR [1]) was 116 nM, the Shift (human β2AR [1]) was 7 and the “Shift (averaged)” value (human β2AR [2]) was 7.

B1: compound 9 (peptide)
peptide: FNDCRDXIQRXHLRQYELL
HELM: PEPTIDE1{[ac].F.N.D.C.R.D.[C#CC[C@H](N[*:1])C(=O)[*:2]].I.Q.R.[[N-]=[N+]=NCCCC[C@H](N[*:1])C(=O)[*:2]].H.L.R.Q.Y.E.L.L}$$$$V2.0
SMILES: C#CC[C@H](NC(=O)[C@H](CC(=O)O)NC(=O)[C@H](CCCNC(=N)N)NC(=O)[C@H](CS)NC(=O)[C@H](CC(=O)O)NC(=O)[C@H](CC(N)=O)NC(=O)[C@H](Cc1ccccc1)NC(C)=O)C(=O)N[C@H](C(=O)N[C@@H](CCC(N)=O)C(=O)N[C@@H](CCCNC(=N)N)C(=O)N[C@@H](CCCCN=[N+]=[N-])C(=O)N[C@@H](Cc1c[nH]cn1)C(=O)N[C@@H](CC(C)C)C(=O)N[C@@H](CCCNC(=N)N)C(=O)N[C@@H](CCC(N)=O)C(=O)N[C@@H](Cc1ccc(O)cc1)C(=O)N[C@@H](CCC(=O)O)C(=O)N[C@@H](CC(C)C)C(=O)N[C@@H](CC(C)C)C(=O)O)[C@@H](C)CC
For B1, the “IC50 (nM) of isoproterenol, [3H]-DHA RLA” value (human β2AR [1]) was 211 nM, the Shift (human β2AR [1]) was 4 and the “Shift (averaged)” value (human β2AR [2]) was 4.

B2: compound 13 (peptide)
peptide: Ac-FNDCRDIIQR[R5]HL[S5]QYELL-OH
modifications: staple 11-14
SMILES: CC[C@H](C)[C@H](NC(=O)[C@H](CC(=O)O)NC(=O)[C@H](CCCNC(=N)N)NC(=O)[C@H](CS)NC(=O)[C@H](CC(=O)O)NC(=O)[C@H](CC(N)=O)NC(=O)[C@H](Cc1ccccc1)NC(C)=O)C(=O)N[C@H](C(=O)N[C@@H](CCC(N)=O)C(=O)N[C@@H](CCCNC(=N)N)C(=O)N[C@]1(C)CCCC=CCCC[C@@](C)(C(=O)N[C@@H](CCC(N)=O)C(=O)N[C@@H](Cc2ccc(O)cc2)C(=O)N[C@@H](CCC(=O)O)C(=O)N[C@@H](CC(C)C)C(=O)N[C@@H](CC(C)C)C(=O)O)NC(=O)[C@H](CC(C)C)NC(=O)[C@H](Cc2c[nH]cn2)NC1=O)[C@@H](C)CC
B2 was tested, and the “IC50 (nM) of isoproterenol, [3H]-DHA RLA” value (human β2AR [3]) was 312 nM, the Shift (human β2AR [3]) was 3 and the “Shift (averaged)” value (human β2AR [2]) was 3.

For H-FNDCRD[Pra′]IQR[Azk]HLRQYELL-OH (triazole 7-11) [compound 10], the “IC50 (nM) of isoproterenol, [3H]-DHA RLA” value (human β2AR [1]) was 122 nM, the Shift (human β2AR [1]) was 7 and the “Shift (averaged)” value (human β2AR [2]) was 7.

With Ac-FNDCRD[S5]IQR[S5]HLRQYELL-OH (staple 7-11) [compound 8] the “IC50 (nM) of isoproterenol, [3H]-DHA RLA” value (human β2AR [4]) was 373 nM, the Shift (human β2AR [4]) was 2 and the “Shift (averaged)” value (human β2AR [2]) was 3.

B3: compound 14 (peptide)
peptide: Ac-FNDCRD[R8]IQRMHL[S5]QYELL-OH
modifications: staple 7-14
SMILES: CC[C@H](C)[C@@H]1NC(=O)[C@](C)(NC(=O)[C@H](CC(=O)O)NC(=O)[C@H](CCCNC(=N)N)NC(=O)[C@H](CS)NC(=O)[C@H](CC(=O)O)NC(=O)[C@H](CC(N)=O)NC(=O)[C@H](Cc2ccccc2)NC(C)=O)CCCCCCC=CCCC[C@@](C)(C(=O)N[C@@H](CCC(N)=O)C(=O)N[C@@H](Cc2ccc(O)cc2)C(=O)N[C@@H](CCC(=O)O)C(=O)N[C@@H](CC(C)C)C(=O)N[C@@H](CC(C)C)C(=O)O)NC(=O)[C@H](CC(C)C)NC(=O)[C@H](Cc2c[nH]cn2)NC(=O)[C@H](CCSC)NC(=O)[C@H](CCCNC(=N)N)NC(=O)[C@H](CCC(N)=O)NC1=O
For B3, the “IC50 (nM) of isoproterenol, [3H]-DHA RLA” value (human β2AR [3]) was 433 nM, the Shift (human β2AR [3]) was 2 and the “Shift (averaged)” value (human β2AR [2]) was 2.
